Assay results reported in PMC9328939, “A Randomized Double‐Blind Placebo‐Controlled First‐In‐Human Phase 1 Trial of TransCon PTH in Healthy Adults” (Journal of Bone and Mineral Research, 2020).
Values joined by “and” are separate entries in the source; they are usually repeats but may differ in a detail not shown here. Identical values can stand only once.

Key:
[1] = test system: healthy adults; conditions: in vivo
Description: (§1) Subjects attended a screening visit; those who met eligibility criteria were randomly assigned to a SAD or MAD cohort (n = 10/cohort; eight active and two placebo) and received a single or multiple dose(s) of TransCon PTH, respectively, via a syringe and 31G 8‐mm needle s.c. to the abdomen. […] Multiple TransCon PTH doses administered daily for 10 days ranged from 3.5 to 24 μg PTH(1‐34)/day. Throughout drug administration and for 4 days following the final dose, subjects remained housed for laboratory tests and safety monitoring.
(§2) At screening, demographic information, medical history, and concomitant medications, vital signs with height and weight, hematology, blood chemistry (including sCa, sP, and sMg), intact endogenous PTH(1‐84), 1,25‐dihydroxyvitamin D, and urine samples were collected. In addition, a limited physical examination and electrocardiogram (ECG) were performed.
(§3) Via regular vital sign checks, physical examinations, and safety laboratory tests, subjects were also monitored for adverse events (AEs) throughout the trial, including injection site reactions (erythema, ecchymosis, edema, pruritus, and pain).

[2] = test system: healthy adults; assay: Safety and tolerability: adverse events in SAD and MAD cohorts
Description: as §1, §2, §3

[3] = test system: healthy adults; assay: Pharmacodynamics: albumin-adjusted serum calcium (sCa); assay type: in vivo, human
Description: as §1
The PD endpoints included albumin‐adjusted sCa, fractional excretion of calcium, sP, renal tubular maximum reabsorption of phosphate/glomerular filtration rate (TMP/GFR), intact endogenous PTH(1‐84), osteoblastic bone formation markers (serum bone‐specific alkaline phosphatase [BSAP] and P1NP), osteoclastic bone resorption markers (urine NTx and serum CTx), sMg, and 1,25‐dihydroxyvitamin D. PK samples were collected predose and at regular intervals postdose through 96 hours for the SAD cohorts and through day14 for the MAD cohorts.
Safety and PD samples were collected and analyzed by a local laboratory (SydPath Clinical Trials, Darlinghurst, Australia).

[4] = test system: healthy adults; assay: Pharmacodynamics: serum magnesium (sMg); assay type: in vivo, human; conditions: MAD cohorts; data not shown
[5] = MAD cohorts administered TransCon PTH (n = 50)
[6] = MAD, 3.5 μg/day s.c. x 10 days, n = 8, number of subjects (% of cohort)
[7] = MAD, 3.5 μg/day x 10 days, n = 8, at least possibly related, number of subjects (%)
[8] = MAD, 7 μg/day s.c. x 10 days, n = 8, number of subjects (% of cohort)
[9] = MAD, 7 μg/day x 10 days, n = 8, at least possibly related, number of subjects (%)
[10] = MAD, 12 μg/day s.c. x 10 days, n = 10, number of subjects (% of cohort)
[11] = MAD, 16 μg/day s.c. x 10 days, n = 8, number of subjects (% of cohort)
[12] = MAD, 16 μg/day x 10 days, n = 8, at least possibly related, number of subjects (%)
[13] = MAD, 20 μg/day s.c. x 10 days, n = 8, number of subjects (% of cohort)
[14] = MAD, 20 μg/day x 10 days, n = 8, at least possibly related, number of subjects (%)
[15] = MAD, 24 μg/day s.c. x 10 days, n = 8, number of subjects (% of cohort)
[16] = MAD, 24 μg/day x 10 days, n = 8, at least possibly related, number of subjects (%)
[17] = MAD, Total of all TransCon PTH doses (3.5 to 24 μg/day), n = 50, number of subjects (%)
[18] = MAD, Total of all TransCon PTH doses, n = 50, at least possibly related, number of subjects (%)
[19] = SAD cohorts administered TransCon PTH (n = 56)
[20] = SAD, Total of all TransCon PTH doses (3.5 to 124 μg), n = 56, number of subjects (%)
[21] = SAD, Total of all TransCon PTH doses, n = 56, at least possibly related, number of subjects (%)
[22] = SAD, single s.c. 3.5 μg, n = 8, number of subjects (% of cohort)
[23] = SAD, single s.c. 3.5 μg, n = 8, vasodilatory AEs at least possibly related to study drug, number of subjects (%)
[24] = SAD, single s.c. 12 μg, n = 8, at least possibly related, number of subjects (%)
[25] = SAD, single s.c. 12 μg, n = 8, number of subjects (% of cohort)
[26] = SAD, single s.c. 32 μg, n = 8, at least possibly related, number of subjects (%)
[27] = SAD, single s.c. 32 μg, n = 8, number of subjects (% of cohort)
[28] = SAD, single s.c. 48 μg, n = 8, at least possibly related, number of subjects (%)
[29] = SAD, single s.c. 48 μg, n = 8, number of subjects (% of cohort)
[30] = SAD, single s.c. 72 μg, n = 8, at least possibly related, number of subjects (%)
[31] = SAD, single s.c. 72 μg, n = 8, number of subjects (% of cohort)
[32] = SAD, single s.c. 100 μg, n = 8, at least possibly related, number of subjects (%)
[33] = SAD, single s.c. 100 μg, n = 8, number of subjects (% of cohort)
[34] = SAD, single s.c. 124 μg, n = 8, at least possibly related, number of subjects (%)
[35] = SAD, single s.c. 124 μg, n = 8, number of subjects (% of cohort)

With “TransCon PTH: long-acting, essentially inactive prodrug: PTH(1-34) transiently bound to an inert 40 kDa mPEG carrier via a proprietary autocleaving linker” the “treatment-emergent AE: upper respiratory tract infections” value [1] was 6%, the “treatment-emergent AE: catheter site phlebitis” value [2, 5] was 8% and the “treatment-emergent AE: dizziness” value [2, 5] was 10%. For the same substance, the “treatment-emergent AE: headache” value [2, 5] was 12%, the “treatment-emergent AE: musculoskeletal pain” value [2, 5] was 6% and the “treatment-emergent AE: palpitations” value [2, 5] was 8%. The “treatment-emergent AE: postural dizziness” value [2, 5] was 6%, the “treatment-emergent AE: presyncope” value [2, 5] was 6% and the “Any AE (%)” value [2, 6] was 6 (75.0) %. For the same substance, the “Any SAE (%)” value [2, 6] was 0 (0) %, the “Any drug-related AE (%)” value [2, 6] was 1 (12.5) % and the “Any moderate or severe AE (%)” value [2, 6] was 2 (25.0) %. The “Dizziness, light-headedness (including postural/orthostatic dizziness, syncope, presyncope) (%)” value [2, 7] was 1 (12.5) %, the “Tachycardia/palpitations (%)” value [2, 7] was 1 (12.5) % and the “Any AE (%)” value [2, 8] was 6 (75.0) %. The “Any SAE (%)” value [2, 8] was 0 (0) %, the “Any drug-related AE (%)” value [2, 8] was 2 (25.0) % and the “Any moderate or severe AE (%)” value [2, 8] was 3 (37.5) %. For the same substance, the “Dizziness, light-headedness (including postural/orthostatic dizziness, syncope, presyncope) (%)” value [2, 9] was 1 (12.5) %, the “Tachycardia/palpitations (%)” value [2, 9] was 0 (0.0) % and the “Any AE (%)” value [2, 10] was 7 (70.0) %. For the same substance, the “Any SAE (%)” value [2, 10] was 1 (10.0) %, the “Any drug-related AE (%)” value [2, 10] was 3 (30.0) % and the “Any moderate or severe AE (%)” value [2, 10] was 2 (20.0) %. For the same substance, the “Tachycardia/palpitations (%)” value ([2]; MAD, 12 μg/day x 10 days, n = 10, at least possibly related, number of subjects (%)) was 0 (0.0) %, the “Any AE (%)” value [2, 11] was 4 (50.0) % and the “Any SAE (%)” value [2, 11] was 0 (0) %. For the same substance, the “Any drug-related AE (%)” value [2, 11] was 2 (25.0) %, the “Any moderate or severe AE (%)” value [2, 11] was 1 (12.5) % and the “Dizziness, light-headedness (including postural/orthostatic dizziness, syncope, presyncope) (%)” value [2, 12] was 0 (0.0) %. For the same substance, the “Tachycardia/palpitations (%)” value [2, 12] was 0 (0.0) %, the “Any AE (%)” value [2, 13] was 3 (37.5) % and the “Any SAE (%)” value [2, 13] was 0 (0) %. For the same substance, the “Any drug-related AE (%)” value [2, 13] was 2 (25.0) %, the “Any moderate or severe AE (%)” value [2, 13] was 1 (12.5) % and the “Dizziness, light-headedness (including postural/orthostatic dizziness, syncope, presyncope) (%)” value [2, 14] was 0 (0.0) %. For the same substance, the “Tachycardia/palpitations (%)” value [2, 14] was 1 (12.5) %, the “subjects reporting vasodilatory or potentially vasodilatory AEs” value ([2]; MAD, 24 μg PTH(1-34)/day cohort, four of eight, placebo two of two (100%)) was 50% and the “albumin-adjusted sCa in a subject with symptomatic hypercalcemia” value ([2]; MAD, 24 μg PTH(1-34)/day, one of three males, discontinued dosing after the sixth dose) was 11.68 mg/dL. The “albumin-adjusted sCa in an asymptomatic subject on day 11” value ([2]; MAD, 24 μg PTH(1-34)/day, single subject) was 11.76 mg/dL, the “Any AE (%)” value [2, 15] was 7 (87.5) % and the “Any SAE (%)” value [2, 15] was 0 (0) %. For the same substance, the “Any drug-related AE (%)” value [2, 15] was 6 (75.0) %, the “Any moderate or severe AE (%)” value [2, 15] was 5 (62.5) % and the “Dizziness, light-headedness (including postural/orthostatic dizziness, syncope, presyncope) (%)” value [2, 16] was 2 (25.0) %. The “Tachycardia/palpitations (%)” value [2, 16] was 3 (37.5) %, the “Any AE (%)” value [2, 17] was 66% and 33 (66.0) % and the “Any SAE (%)” value [2, 17] was 1 (2.0) %. The “Any drug-related AE (%)” value [2, 17] was 16 (32.0) %, the “Any moderate or severe AE (%)” value [2, 17] was 14 (28.0) % and the “Dizziness, light-headedness (including postural/orthostatic dizziness, syncope, presyncope) (%)” value [2, 18] was 5 (10.0) %. The “Tachycardia/palpitations (%)” value [2, 18] was 5 (10.0) %, the “maximum tolerable dose (MTD)” value ([2]; MAD, healthy volunteers, daily s.c. x 10 days) was 20 μg PTH(1-34)/day and the “discontinuation of the trial due to an AE” value ([2]; SAD and MAD cohorts) was “No subjects”. The “drug-related SAEs or severe AEs” value ([2]; SAD and MAD cohorts) was “no drug‐related SAEs or severe AEs”, the “physical examination, ECG, standard safety laboratory tests” value ([2]; SAD and MAD cohorts) was “no safety concerns were detected” and the tolerability ([2]; SAD and MAD cohorts, s.c.) was “generally well tolerated”. The “treatment-emergent AE: dizziness” value [2, 19] was 10.7%, the “treatment-emergent AE: headache” value [2, 19] was 7.1% and the “treatment-emergent AE: postural dizziness” value [2, 19] was 5.4%. For the same substance, the “maximum tolerable dose (MTD)” value ([2]; SAD cohorts, up to the top dose of 124 μg PTH(1-34)) was “No MTD was observed”, the “Any AE (%)” value [2, 20] was 41.1% and 23 (41.1) % and the “Any SAE (%)” value [2, 20] was 1 (1.8) %. For the same substance, the “Any drug-related AE (%)” value [2, 20] was 14 (25.0) %, the “Any moderate or severe AE (%)” value [2, 20] was 6 (10.7) % and the “Dizziness, light-headedness (including postural/orthostatic dizziness, syncope, presyncope) (%)” value [2, 21] was 4 (7.1) %. For the same substance, the “Tachycardia/palpitations (%)” value [2, 21] was 0 (0.0) %, the “Any AE (%)” value [2, 22] was 1 (12.5) % and the “Any SAE (%)” value [2, 22] was 0 (0) %. The “Any drug-related AE (%)” value [2, 22] was 1 (12.5) %, the “Any moderate or severe AE (%)” value [2, 22] was 0 (0) % and the “Dizziness, light-headedness (including postural/orthostatic dizziness, syncope, presyncope) (%)” value [2, 23] was 0 (0.0) %. For the same substance, the “Tachycardia/palpitations (%)” value [2, 23] was 0 (0.0) %, the “Dizziness, light-headedness (including postural/orthostatic dizziness, syncope, presyncope) (%)” value [2, 24] was 0 (0.0) % and the “Tachycardia/palpitations (%)” value [2, 24] was 0 (0.0) %. For the same substance, the “Any AE (%)” value [2, 25] was 3 (37.5) %, the “Any SAE (%)” value [2, 25] was 1 (12.5) % and the “Any drug-related AE (%)” value [2, 25] was 1 (12.5) %. The “Any moderate or severe AE (%)” value [2, 25] was 1 (12.5) %, the “Dizziness, light-headedness (including postural/orthostatic dizziness, syncope, presyncope) (%)” value [2, 26] was 1 (12.5) % and the “Tachycardia/palpitations (%)” value [2, 26] was 0 (0.0) %. For the same substance, the “Any AE (%)” value [2, 27] was 3 (37.5) %, the “Any SAE (%)” value [2, 27] was 0 (0) % and the “Any drug-related AE (%)” value [2, 27] was 2 (25.0) %. For the same substance, the “Any moderate or severe AE (%)” value [2, 27] was 0 (0) %, the “Dizziness, light-headedness (including postural/orthostatic dizziness, syncope, presyncope) (%)” value [2, 28] was 0 (0.0) % and the “Tachycardia/palpitations (%)” value [2, 28] was 0 (0.0) %. The “Any AE (%)” value [2, 29] was 6 (75.0) %, the “Any SAE (%)” value [2, 29] was 0 (0) % and the “Any drug-related AE (%)” value [2, 29] was 5 (62.5) %. The “Any moderate or severe AE (%)” value [2, 29] was 2 (25.0) %, the “Dizziness, light-headedness (including postural/orthostatic dizziness, syncope, presyncope) (%)” value [2, 30] was 0 (0.0) % and the “Tachycardia/palpitations (%)” value [2, 30] was 0 (0.0) %. The “Any AE (%)” value [2, 31] was 2 (25.0) %, the “Any SAE (%)” value [2, 31] was 0 (0) % and the “Any drug-related AE (%)” value [2, 31] was 0 (0.0) %. For the same substance, the “Any moderate or severe AE (%)” value [2, 31] was 1 (12.5) %, the “Dizziness, light-headedness (including postural/orthostatic dizziness, syncope, presyncope) (%)” value [2, 32] was 2 (25.0) % and the “Tachycardia/palpitations (%)” value [2, 32] was 0 (0.0) %. For the same substance, the “Any AE (%)” value [2, 33] was 4 (50.0) %, the “Any SAE (%)” value [2, 33] was 0 (0) % and the “Any drug-related AE (%)” value [2, 33] was 3 (37.5) %. The “Any moderate or severe AE (%)” value [2, 33] was 1 (12.5) %, the “Dizziness, light-headedness (including postural/orthostatic dizziness, syncope, presyncope) (%)” value [2, 34] was 1 (12.5) % and the “Tachycardia/palpitations (%)” value [2, 34] was 0 (0.0) %. For the same substance, the “Any AE (%)” value [2, 35] was 4 (50.0) %, the “Any SAE (%)” value [2, 35] was 0 (0) % and the “Any drug-related AE (%)” value [2, 35] was 2 (25.0) %. For the same substance, the “Any moderate or severe AE (%)” value [2, 35] was 1 (12.5) %, the “albumin-adjusted sCa on day 11” value ([3]; MAD, 24 μg PTH(1-34)/day x 10 days, n = 8, mean (± SD as printed), baseline 9.60 ± 0.06) was 10.63 ± 0.22 mg/dL and the “albumin-adjusted sCa on day 2” value ([3]; SAD, single s.c. 124 μg PTH(1-34), n = 8, mean ± SD as printed, baseline 9.43 ± 0.09) was 10.97 ± 0.20 mg/dL. The “change in serum magnesium (sMg)” value [4] was “nonsignificant increase”.
